Source: the PETadex activity labels (doi:10.1016/j.ijbiomac.2024.137732)

Key:
gfPET [1] = experiment: Proxy for plastic degradation [Released monomer concentration (HPLC/LC-MS) (MHET+BHET+TPA)]; conditions: pH 9
gfPET [2] = experiment: Proxy for plastic degradation [Released monomer concentration (HPLC/LC-MS) (TPA+MHET+BHET)]

B1: unnamed (protein)
chain: NADQFVQFESAAVKPTQFQERNARARGEAVNAVPGTPLQGYLTRPQGEGPFPAIVILHGCAGIHPSVKETWPERLASWGYVVLVVDSFSTRGIQNTCNNLLVDRVYDAYGALEFLSNYSFVDPKRIAVMGFSAGGIATLEAVQFGGAERLMEHKFKAAVAYYPICKAANGDMAVPTLVLVGDLDDWSPAEQCRTMMKQRSGAGSPVQLNVYKGAHHAFDAPEFKTGFEAYGHWIEYNGIAADQSVSDVHAFLRGVFGN
gfPET [1]
  Proxy for plastic degradation: 3.8 µM

B2: unnamed (protein)
chain: ASEQSTKNITNVTTESDVSVYRDLMLVAGKYVFYPADFETTTKKYPVVTWANGSWCPIQTYLPIIYGLVKAGYIVVADTDLLTDDGKSTVDSVSYIIKQNKNKNSMFYKRINTKQIGSTGHSLGGQAAVNASAKDSRIKAIVSLAGKSVADEAAKVTVPALYLSGTLDMIVPSKDYVYPSYKASKGPAAYASFNNMVHFGVWIAPGNYVKYTVAWFDVYLKGDKSKLSMFKKGGDLSTDDFWINYESKNL
gfPET [2]; pH 6
  Proxy for plastic degradation: 2.5 µM
gfPET [2]; pH 7
  Proxy for plastic degradation: 5 µM
gfPET [2]; pH 8
  Proxy for plastic degradation: 10 µM
gfPET [2]; pH 9
  Proxy for plastic degradation: 15 µM
gfPET [2]; pH 9, 25 °C
  Proxy for plastic degradation: 4 µM
gfPET [2]; pH 9, 30 °C
  Proxy for plastic degradation: 6.5 µM
gfPET [2]; pH 9, 35 °C
  Proxy for plastic degradation: 12 µM
gfPET [2]; pH 9, 37 °C
  Proxy for plastic degradation: 16 µM
gfPET [2]; pH 9, 40 °C
  Proxy for plastic degradation: 20 µM
gfPET [2]; pH 9, 45 °C
  Proxy for plastic degradation: 11 µM
gfPET [2]; pH 10
  Proxy for plastic degradation: 25 µM
gfPET [2]; pH 11
  Proxy for plastic degradation: 50 µM
gfPET [1]
  Proxy for plastic degradation: 17.5 µM

B3: unnamed (protein)
chain: QELQENWWSNGKYAIEDVADPVYSFDEEYMKDVPNIYLPIGKTGKLPVVIVVHGWAAYKEQMHDTAQLLASHGMLVLVYTAMDQNQPFQWLDGIIAAYTLLEGENRRPGSKIHNRVDFQRIGLLGHSMGGTGVLFSAAMEKPNGLRGKIKTVVSLMPYHGTTNFISDAVAGGKDKLGCDVSATPNATLIISGEVDEVNEPIGGYEFYQTLTQNKRVFFSMKGTHHNDWRNKEGKESENYPIVMPVVSSWMLAYLCGERQYESFFKEGGLYFEKWIRPTLKGNVKVGRGEFPAFEIKEP
gfPET [1]
  Proxy for plastic degradation: 4 µM

B4: unnamed (protein)
chain: QELQEDWWRTGKYAIEDIADPVYSLDEEYMRDTPNLYLPKGKTGKLPVVIVIHGWGGTKEQMQPTAQLLASHGMLVLNYTAVDQNQPFQWLDGLVAAYTLLEGENRRPGSKIYNRVDFQRIGLLGHSMGAAGVLHIAAMEKPNGLRGKIKTVVSMMPYHGTTSTFTDNIAGGKDKLGCDISSTPNATLIISAELDPTNEPIGGYEFYQTLKRNKRVFFSLKGAKHIDWMKERDKKYSVAMPVITAWMLTYLCGETQYESYFREGGHYFEKWVRETLKGNVKVGRGEFPAFEIKEP
gfPET [1]
  Proxy for plastic degradation: 4 µM

B5: unnamed (protein)
chain: QTIEMAQSQIDKLAKIETDSLASYADSYTYDEEYFAENEPATIYYPKNLEGKVPAVIVVHGFNCKQKFLQKIPQHLSSHGFICITYTALDQKRPFQWPPGLMAAYEILRGESMRPDSPIYDHVDLDAVALVGHSMGGAGVLHTAMMPYPNGLRGKIKTVVGLNPYNGGPLMAEVGGGANDNLGDDLSHLDIPTMIVTGSYDIVAFPWKSFAFYNSLRGPAKHAFLSIDRMDHADWYFIPSEPKYPILRAILYSWLRAYLADDSEYRDYFVDRPGSSFDKYLKPLLSNTPNPLTRGGESFPPYVLSEEEDPLGTTN
gfPET [1]
  Proxy for plastic degradation: 2.4 µM
